Test results from patent publication US7052908B2, “Androgen receptor coactivators” (University of Rochester, priority 1998, dated 2006).

Assays:
[1] = biological target: T1, progesterone receptor (PR) (Homo sapiens, UniProt P06401); experiment: Steroid receptor transactivation, MMTV-CAT reporter in DU145 cells; format: cell-based; conditions: DU145, relative to AR
T1 construct: expressed in transfected cells; host or cells: DU145
T1 sequence (P06401 1-933): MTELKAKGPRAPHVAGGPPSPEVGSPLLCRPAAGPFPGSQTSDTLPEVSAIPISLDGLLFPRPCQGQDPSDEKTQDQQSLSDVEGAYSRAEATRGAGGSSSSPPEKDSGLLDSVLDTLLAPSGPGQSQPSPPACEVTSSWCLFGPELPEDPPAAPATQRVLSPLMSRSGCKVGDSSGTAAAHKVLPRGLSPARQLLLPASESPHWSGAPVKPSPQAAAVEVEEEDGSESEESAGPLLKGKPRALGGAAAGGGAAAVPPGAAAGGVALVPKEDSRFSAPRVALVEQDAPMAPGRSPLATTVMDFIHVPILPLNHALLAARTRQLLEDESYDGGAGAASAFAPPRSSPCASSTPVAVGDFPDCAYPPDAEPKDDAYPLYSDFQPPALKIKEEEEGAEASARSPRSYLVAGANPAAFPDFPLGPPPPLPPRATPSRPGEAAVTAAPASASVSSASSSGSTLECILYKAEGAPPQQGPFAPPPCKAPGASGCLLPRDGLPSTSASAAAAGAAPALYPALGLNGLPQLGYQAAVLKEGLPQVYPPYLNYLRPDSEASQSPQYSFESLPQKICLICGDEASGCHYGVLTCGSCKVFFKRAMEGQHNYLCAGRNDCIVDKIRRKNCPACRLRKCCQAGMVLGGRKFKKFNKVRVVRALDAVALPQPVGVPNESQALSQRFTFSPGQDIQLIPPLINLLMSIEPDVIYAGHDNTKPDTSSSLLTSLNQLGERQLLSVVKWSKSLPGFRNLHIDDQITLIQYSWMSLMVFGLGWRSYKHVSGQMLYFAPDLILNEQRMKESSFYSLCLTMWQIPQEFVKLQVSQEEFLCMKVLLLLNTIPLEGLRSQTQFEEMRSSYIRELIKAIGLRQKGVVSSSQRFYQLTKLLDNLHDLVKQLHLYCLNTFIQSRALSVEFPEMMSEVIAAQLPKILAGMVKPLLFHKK

[2] = biological target: T2, glucocorticoid receptor (GR) (Homo sapiens, UniProt P04150); experiment: as above; format: cell-based; conditions: DU145, relative to AR
T2 construct: expressed in transfected cells; host or cells: DU145
T2 sequence (P04150 1-777): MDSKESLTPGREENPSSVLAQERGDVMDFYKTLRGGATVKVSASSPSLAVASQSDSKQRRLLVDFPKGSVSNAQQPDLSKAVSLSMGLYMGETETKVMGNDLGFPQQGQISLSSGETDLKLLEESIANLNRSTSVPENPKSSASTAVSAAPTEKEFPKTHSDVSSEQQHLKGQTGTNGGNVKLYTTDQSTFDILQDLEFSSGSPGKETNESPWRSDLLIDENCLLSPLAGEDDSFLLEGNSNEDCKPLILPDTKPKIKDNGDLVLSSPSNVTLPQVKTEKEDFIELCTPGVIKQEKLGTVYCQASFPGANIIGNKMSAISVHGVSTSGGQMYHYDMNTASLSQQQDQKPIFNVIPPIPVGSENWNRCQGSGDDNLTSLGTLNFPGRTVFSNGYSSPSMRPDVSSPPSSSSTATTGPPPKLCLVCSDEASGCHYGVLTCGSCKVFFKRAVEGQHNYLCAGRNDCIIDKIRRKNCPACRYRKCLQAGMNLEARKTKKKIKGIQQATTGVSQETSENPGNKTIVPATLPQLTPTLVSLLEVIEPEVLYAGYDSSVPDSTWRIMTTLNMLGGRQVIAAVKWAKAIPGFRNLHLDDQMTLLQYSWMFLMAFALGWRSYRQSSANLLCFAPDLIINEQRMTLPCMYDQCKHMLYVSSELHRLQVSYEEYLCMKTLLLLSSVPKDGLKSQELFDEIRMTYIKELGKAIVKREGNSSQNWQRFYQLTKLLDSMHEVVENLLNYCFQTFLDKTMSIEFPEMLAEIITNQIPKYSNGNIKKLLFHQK

B1: ARA55: androgen receptor coactivator, 444 aa, SEQ ID NO:4, 91% homology with mouse hic5 (protein)
chain: MPRSGAPKERPAEPLTPPPSYGHQPTGQSGESSGASGDKDHLYSTVCKPRSPKPAAPAAPPFSSSSGVLGTGLCELDRLLQELNATQFNITDEIMSQFPSSKVASGEQKEDQSEDKKRPSLPSSPSPGLPKASATSATLELDRLMASLPDFRVQNHLPASGPTQPPVVSSTNEGSPSPPEPTAKGSLDTMLGLLQSDLSRRGVPTQAKGLCGSCNKPIAGQVVTALGRAWHPEHFVCGGCSTALGGSSFFEKDGAPFCPECYFERFSPRCGFCNQPIRHKMVTALGTHWHPEHFCCVSCGEPFGDEGFHEREGRPYCRRDFLQLFAPRCQGCQGPILDNYISALSLLWHPDCFVCRECFAPFSGGSFFEHEGRPLCENHFHARRGSLCPTCGLPVTGRCVSALGRRFHPDHFACTFCLRPLTKGSFQERAGKPYCQPCFLKLFG
modifications: Homo sapien
[1]
  enhancement of PR transcriptional activation by ARA55: to a lesser degree
[2]
  enhancement of GR transcriptional activation by ARA55: to a lesser degree
